experiment: Enzyme kinetics of GTP hydrolysis (PNP coupled assay, Michaelis–Menten); format: biochemical, Saccharomyces cerevisiae; conditions: enzyme in complex with Sdo1 (25 µM Sdo1)
Experimental: Finally, we measured the enzyme kinetics of mutant Efl1 R1086Q as an isolated enzyme and bound to Sdo1 using an enzymatic coupled assay with a purine nucleoside phosphorylase (PNP) enzyme. This analysis was extended to another disease mutation (EFL1 M882K) also located in domain IV of the GTPase using the equivalent yeast variant, Efl1 L910K [17]. The Km and kcat kinetic parameters were calculated using non-linear regression assuming a Michaelis–Menten model (Supplementary Table S1). […] The catalytic constant for mutant R1086Q and the wild-type enzyme consisted of 0.67 min^−1, and it was 0.58 min^−1 for mutant Efl1 L910K. […] In line with the proposed role of Sdo1 as a guanine exchange factor of Efl1, previous results have shown that the interaction of wild-type Efl1 with Sdo1 impacted its Km for GTP, decreasing its value 2–3-fold. The Km values for the complexes formed between Sdo1 and Efl1 mutants decreased by half with respect to their cognate-free counterpart and differed from each other. […] The measured Km value comprises all the microscopic rate constants of the individual reactions occurring in the enzyme, which include the binding to the substrate and product and the corresponding conformational changes.
Hydrolysis of GTP was measured using the Enzchek Phosphate Assay kit (Molecular Probes) as described by Webb. Standard reactions consisted of 100 µL containing 6 µM of Efl1 R1086Q and Efl1 L910K, 0.3 mM MESG, 1.0 U purine nucleoside phosphorylase (PNP) and the indicated amounts of GTP. Measurements done in the presence of effector protein contained 25 µM of Sdo1.
The reaction buffer consisted of 50 mM HEPES -KOH pH 7.5, 150 mM NaCl, 5 mM MgCl2.
Reactions were initiated and the GTPase was added after 3 min. Time courses were followed by recording the change in absorbance at 360 nm in a Cary 60 UV -Vis spectrophotometer (Agilent Technologies). Background absorbance was recorded prior to the addition of the GTPase and subtracted from the sample signals. The slope of the measured time courses corresponded to the GTP hydrolysis rate. The concentration of releas ed phosphate was estimated using a molar absorption coefficient at 360 nm of 14,386 M -1 cm-1 previously described in [2]. Data were analysed by nonlinear regression to the M ichaelis-Menten equation with the program Origin Version 5.0 (OriginLab, Co., Northampton, MA). […]
M HEPES-KOH pH 7.4, 2.5 mM magnesium acetate, 50 mM sucrose, 2 mM DTT, 0.1 mM PMSF, 0.1 mM benzamidine, 8 mM putrescine, 1 mM spermidine. […]
Dilution at the end of each titration was no longer than 2.5% of the initial volume. Data were corrected for the background signal by subtracting the fluorescence of the same ligand concentration without the GTPase in the reaction mixture.
Maximum emission at 440 nm was replotted as a function of nucleotide concentration and analysed

| Molecule | kcat |
| --- | --- |
| Efl1 R1086Q • Sdo1: binary complex of mutant GTPase Efl1 R1086Q and effector Sdo1 (protein, UniProt P53893 1-1110; Q07953 1-250, looked up, variant R1086Q, binary complex) Ribosome assembly protein 1: MPRVESETYKRLQNDPSCIRNICIVAHVDHGKTSLSDSLLASNGIISQRLAGKIRFLDARPDEQLRGITMESSAISLYFRVLRKQEGSDEPLVSEHLVNLIDSPGHIDFSSEVSAASRLCDGAVVLVDVVEGVCSQTVTVLRQCWTEKLKPILVLNKIDRLITELQLTPQEAYIHLSKVIEQVNSVIGSFFANERQLDDLFWREQLEKNENAEYIEKDDSGIYFNPTDNNVIFASAIDGWGFNIGQLAKFYEQKLGAKRENLQKVLWGDFYMDPKTKKIINNKGLKGRSLKPLFTSLILENIWKIYQNIITSRDSEMVEKIAKTLNIKLLARDLRSKDDKQLLRTIMGQWLPVSTAVLLTVIEKLPSPLESQTDRLNTILVSESDTAAMDPRLLKAMKTCDKEGPVSAYVSKMLSIPREELPVESKRIASSDELMERSRKAREEALNAAKHAGMVENMAMMDLNDNSKNTSDLYKRAKDTVMTPEVGEQTKPKPSRNNDVFCVVSEPSSALDLEFEYEGEDDSDSQDNFGLDFVPTDIDPNDPLSSMFEYEEEDPLLESIKQISEDVNDEVDDIFDEKEECLVAFARIYSGTLRVGQEISVLGPKYDPKCPEEHIETAIITHLYLFMGKELVPLDVCPSGNIVGIRGLAGKVLKSGTLIEKGVQGVNLAGVNFHFTPIVRVAVEPANPVEMSKLVRGLKLLDQADPCVHTYVENTGEHILCTAGELHLERCLKDLTERFAGIEITHSEPAIPYRETFLSASDMNPPQNSQLGRGVHELLLSQYKITFRTFPLSGKVTDFLSQHQNSIKNILKTSTSSMDPVIESTGSSFLDKKSLLVAFEEVINQEEKSRELLSGFKVKLAGFGPSRVGCNILLSQDNLLGSLFEGTPAAFEYSDSIKNGFQLAVSEGPLANEPVQGMCVLVESVHKMSQDEIESIEDPRYQQHIVDLSGRLITSTRDAIHEAFLDWSPRIMWAIYSCDIQTSVDVLGKVYAVILQRHGKIISEEMKEGTPFFQIEAHVPVVEAFGLSEDIRKRTSGAAQPQLVFSGFECIDLDPFWVPTTEEELEELGDTADRENIARKHMNAIQRRKGLFIEEKVVENAEKQRTLKKN Ribosome maturation protein …: MPINQPSGQIKLTNVSLVRLKKARKRFEVACYQNKVQDYRKGIEKDLDEVLQIHQVFMNVSKGLVANKEDLQKCFGTTNVDDVIEEIMHKGEIQLSEKERQLMLNKVNNEMLTIVSAKCINPVSKKRYPPTMIHKALQELKFSPVINKPAKLQALEAIKLLVSKQIIPIVRAKMKVKVAISEPSRQPELIEKISKLIASSPGESTKPELDPWTCTGLIDPVNYRDLMTLCDKKGTVQVLDMAVIDNTTHN | 0.0112 s⁻¹ |
| Efl1 WT • Sdo1: binary complex of wild-type Efl1 GTPase and effector Sdo1 (protein, UniProt P53893 1-1110; Q07953 1-250, looked up, binary complex) Ribosome assembly protein 1: MPRVESETYKRLQNDPSCIRNICIVAHVDHGKTSLSDSLLASNGIISQRLAGKIRFLDARPDEQLRGITMESSAISLYFRVLRKQEGSDEPLVSEHLVNLIDSPGHIDFSSEVSAASRLCDGAVVLVDVVEGVCSQTVTVLRQCWTEKLKPILVLNKIDRLITELQLTPQEAYIHLSKVIEQVNSVIGSFFANERQLDDLFWREQLEKNENAEYIEKDDSGIYFNPTDNNVIFASAIDGWGFNIGQLAKFYEQKLGAKRENLQKVLWGDFYMDPKTKKIINNKGLKGRSLKPLFTSLILENIWKIYQNIITSRDSEMVEKIAKTLNIKLLARDLRSKDDKQLLRTIMGQWLPVSTAVLLTVIEKLPSPLESQTDRLNTILVSESDTAAMDPRLLKAMKTCDKEGPVSAYVSKMLSIPREELPVESKRIASSDELMERSRKAREEALNAAKHAGMVENMAMMDLNDNSKNTSDLYKRAKDTVMTPEVGEQTKPKPSRNNDVFCVVSEPSSALDLEFEYEGEDDSDSQDNFGLDFVPTDIDPNDPLSSMFEYEEEDPLLESIKQISEDVNDEVDDIFDEKEECLVAFARIYSGTLRVGQEISVLGPKYDPKCPEEHIETAIITHLYLFMGKELVPLDVCPSGNIVGIRGLAGKVLKSGTLIEKGVQGVNLAGVNFHFTPIVRVAVEPANPVEMSKLVRGLKLLDQADPCVHTYVENTGEHILCTAGELHLERCLKDLTERFAGIEITHSEPAIPYRETFLSASDMNPPQNSQLGRGVHELLLSQYKITFRTFPLSGKVTDFLSQHQNSIKNILKTSTSSMDPVIESTGSSFLDKKSLLVAFEEVINQEEKSRELLSGFKVKLAGFGPSRVGCNILLSQDNLLGSLFEGTPAAFEYSDSIKNGFQLAVSEGPLANEPVQGMCVLVESVHKMSQDEIESIEDPRYQQHIVDLSGRLITSTRDAIHEAFLDWSPRIMWAIYSCDIQTSVDVLGKVYAVILQRHGKIISEEMKEGTPFFQIEAHVPVVEAFGLSEDIRKRTSGAAQPQLVFSGFECIDLDPFWVPTTEEELEELGDTADRENIARKHMNAIRRRKGLFIEEKVVENAEKQRTLKKN Ribosome maturation protein …: MPINQPSGQIKLTNVSLVRLKKARKRFEVACYQNKVQDYRKGIEKDLDEVLQIHQVFMNVSKGLVANKEDLQKCFGTTNVDDVIEEIMHKGEIQLSEKERQLMLNKVNNEMLTIVSAKCINPVSKKRYPPTMIHKALQELKFSPVINKPAKLQALEAIKLLVSKQIIPIVRAKMKVKVAISEPSRQPELIEKISKLIASSPGESTKPELDPWTCTGLIDPVNYRDLMTLCDKKGTVQVLDMAVIDNTTHN | 0.0107 s⁻¹ |
| Efl1 L910K • Sdo1: binary complex of mutant GTPase Efl1 L910K and effector Sdo1 (protein, UniProt P53893 1-1110; Q07953 1-250, looked up, variant L910K, binary complex) Ribosome assembly protein 1: MPRVESETYKRLQNDPSCIRNICIVAHVDHGKTSLSDSLLASNGIISQRLAGKIRFLDARPDEQLRGITMESSAISLYFRVLRKQEGSDEPLVSEHLVNLIDSPGHIDFSSEVSAASRLCDGAVVLVDVVEGVCSQTVTVLRQCWTEKLKPILVLNKIDRLITELQLTPQEAYIHLSKVIEQVNSVIGSFFANERQLDDLFWREQLEKNENAEYIEKDDSGIYFNPTDNNVIFASAIDGWGFNIGQLAKFYEQKLGAKRENLQKVLWGDFYMDPKTKKIINNKGLKGRSLKPLFTSLILENIWKIYQNIITSRDSEMVEKIAKTLNIKLLARDLRSKDDKQLLRTIMGQWLPVSTAVLLTVIEKLPSPLESQTDRLNTILVSESDTAAMDPRLLKAMKTCDKEGPVSAYVSKMLSIPREELPVESKRIASSDELMERSRKAREEALNAAKHAGMVENMAMMDLNDNSKNTSDLYKRAKDTVMTPEVGEQTKPKPSRNNDVFCVVSEPSSALDLEFEYEGEDDSDSQDNFGLDFVPTDIDPNDPLSSMFEYEEEDPLLESIKQISEDVNDEVDDIFDEKEECLVAFARIYSGTLRVGQEISVLGPKYDPKCPEEHIETAIITHLYLFMGKELVPLDVCPSGNIVGIRGLAGKVLKSGTLIEKGVQGVNLAGVNFHFTPIVRVAVEPANPVEMSKLVRGLKLLDQADPCVHTYVENTGEHILCTAGELHLERCLKDLTERFAGIEITHSEPAIPYRETFLSASDMNPPQNSQLGRGVHELLLSQYKITFRTFPLSGKVTDFLSQHQNSIKNILKTSTSSMDPVIESTGSSFLDKKSLLVAFEEVINQEEKSRELLSGFKVKLAGFGPSRVGCNILLSQDNLLGSLFEGTPAAFEYSDSIKNGFQLAVSEGPKANEPVQGMCVLVESVHKMSQDEIESIEDPRYQQHIVDLSGRLITSTRDAIHEAFLDWSPRIMWAIYSCDIQTSVDVLGKVYAVILQRHGKIISEEMKEGTPFFQIEAHVPVVEAFGLSEDIRKRTSGAAQPQLVFSGFECIDLDPFWVPTTEEELEELGDTADRENIARKHMNAIRRRKGLFIEEKVVENAEKQRTLKKN Ribosome maturation protein …: MPINQPSGQIKLTNVSLVRLKKARKRFEVACYQNKVQDYRKGIEKDLDEVLQIHQVFMNVSKGLVANKEDLQKCFGTTNVDDVIEEIMHKGEIQLSEKERQLMLNKVNNEMLTIVSAKCINPVSKKRYPPTMIHKALQELKFSPVINKPAKLQALEAIKLLVSKQIIPIVRAKMKVKVAISEPSRQPELIEKISKLIASSPGESTKPELDPWTCTGLIDPVNYRDLMTLCDKKGTVQVLDMAVIDNTTHN | 0.0125 s⁻¹ |
